Test results published in US20260167699A1 (Chugai, published 2026).

Assays:
Assay in all cases: SPR, relative to GpH7-A5/GpH7-B3/GpL16-k0 =100
FcγRIIa(R) = biological target: T1, FcγRIIa(R) (human, UniProt P12318 34-217)
T1 construct: extracellular domain; also called 2aR
T1 sequence: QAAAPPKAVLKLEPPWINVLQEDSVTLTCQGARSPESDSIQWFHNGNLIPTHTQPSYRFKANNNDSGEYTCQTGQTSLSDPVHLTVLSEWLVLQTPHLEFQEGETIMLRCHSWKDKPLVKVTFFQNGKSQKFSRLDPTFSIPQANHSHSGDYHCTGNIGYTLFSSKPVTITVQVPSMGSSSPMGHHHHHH

FcγRIIb = biological target: T2, FcγRIIb (human, UniProt P31994 43-217)
T2 construct: extracellular domain; also called 2b
T2 sequence: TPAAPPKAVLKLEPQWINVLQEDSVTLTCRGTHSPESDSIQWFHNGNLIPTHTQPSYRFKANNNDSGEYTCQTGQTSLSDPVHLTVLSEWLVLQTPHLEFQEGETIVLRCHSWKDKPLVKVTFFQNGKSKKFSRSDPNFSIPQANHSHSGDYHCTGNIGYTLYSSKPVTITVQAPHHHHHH

FcγRIa = biological target: T3, FcγRIa (human, UniProt P12314 16-292)
T3 construct: extracellular domain; also called 1a
T3 sequence (P12314 other isoform, or with tags, fused parts or gaps): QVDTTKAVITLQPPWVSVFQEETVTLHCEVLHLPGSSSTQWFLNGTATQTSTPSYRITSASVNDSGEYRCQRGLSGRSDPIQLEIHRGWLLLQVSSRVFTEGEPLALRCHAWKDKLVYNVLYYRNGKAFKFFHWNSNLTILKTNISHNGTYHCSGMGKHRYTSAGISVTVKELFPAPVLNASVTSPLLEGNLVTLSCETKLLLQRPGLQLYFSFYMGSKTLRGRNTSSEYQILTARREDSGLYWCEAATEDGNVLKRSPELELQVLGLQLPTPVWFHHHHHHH

FcγRIIa(H) = biological target: T4, FcγRIIa(H) (human, UniProt P12318 34-217)
T4 construct: extracellular domain; also called 2aH
T4 sequence: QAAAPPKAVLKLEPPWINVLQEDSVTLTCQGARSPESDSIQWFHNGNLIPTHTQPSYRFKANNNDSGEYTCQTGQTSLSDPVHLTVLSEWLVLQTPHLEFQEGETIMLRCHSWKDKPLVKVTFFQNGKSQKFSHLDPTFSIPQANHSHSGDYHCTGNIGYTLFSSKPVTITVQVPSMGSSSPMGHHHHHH

Row | He/Con 2aR (FcγRIIa(R)) [%] | He/Con 2b (FcγRIIb) [%] | He/Con 1a (FcγRIa) [%] | He/Con 2aH (FcγRIIa(H)) [%] | Binder
1 | 92.9 | 90.5 | 106 | 104 | GpH7-A5/GpH7-B3 variant Y300_02A/GpL16-k0 (antibody, human IgG1, kappa, He Ab: heterodimerized IgG1, one H chain mutated) heavy 1: not shown heavy 2: not shown light: DIVMTQSPLSLPVTPGEPASISCQASESLVHSNRNTYLHWYLQKPGQSPQLLIYKVSNRFSGVPDRFSGSGSGTDFTLKISRVEAEDVGVYYCSQNTHVPPTFGQGTKVEIERTVAAPSVFIFPPSDEQLKSGTASVVCLLNNFYPREAKVQWKVDNALQSGNSQESVTEQDSKDSTYSLSSTLTLSKADYEKHKVYACEVTHQGLSSPVTKSFNRGEC
2 | 72.4 | 70.4 | 105 | 97.8 | GpH7-A5/GpH7-B3 variant Y300_13S/GpL16-k0 (antibody, human IgG1, kappa, He Ab: heterodimerized IgG1, one H chain mutated) heavy 1: not shown heavy 2: not shown light: DIVMTQSPLSLPVTPGEPASISCQASESLVHSNRNTYLHWYLQKPGQSPQLLIYKVSNRFSGVPDRFSGSGSGTDFTLKISRVEAEDVGVYYCSQNTHVPPTFGQGTKVEIERTVAAPSVFIFPPSDEQLKSGTASVVCLLNNFYPREAKVQWKVDNALQSGNSQESVTEQDSKDSTYSLSSTLTLSKADYEKHKVYACEVTHQGLSSPVTKSFNRGEC
3 | 105 | 122 | 106 | 101 | GpH7-A5/GpH7-B3 variant Y300_09D/GpL16-k0 (antibody, human IgG1, kappa, He Ab: heterodimerized IgG1, one H chain mutated) heavy 1: not shown heavy 2: not shown light: DIVMTQSPLSLPVTPGEPASISCQASESLVHSNRNTYLHWYLQKPGQSPQLLIYKVSNRFSGVPDRFSGSGSGTDFTLKISRVEAEDVGVYYCSQNTHVPPTFGQGTKVEIERTVAAPSVFIFPPSDEQLKSGTASVVCLLNNFYPREAKVQWKVDNALQSGNSQESVTEQDSKDSTYSLSSTLTLSKADYEKHKVYACEVTHQGLSSPVTKSFNRGEC
4 | 90.9 | 97.4 | 102 | 120 | GpH7-A5/GpH7-B3 variant Y300_07I/GpL16-k0 (antibody, human IgG1, kappa, He Ab: heterodimerized IgG1, one H chain mutated) heavy 1: not shown heavy 2: not shown light: DIVMTQSPLSLPVTPGEPASISCQASESLVHSNRNTYLHWYLQKPGQSPQLLIYKVSNRFSGVPDRFSGSGSGTDFTLKISRVEAEDVGVYYCSQNTHVPPTFGQGTKVEIERTVAAPSVFIFPPSDEQLKSGTASVVCLLNNFYPREAKVQWKVDNALQSGNSQESVTEQDSKDSTYSLSSTLTLSKADYEKHKVYACEVTHQGLSSPVTKSFNRGEC
5 | 119 | 142 | 106 | 107 | GpH7-A5/GpH7-B3 variant Y300_19Q/GpL16-k0 (antibody, human IgG1, kappa, He Ab: heterodimerized IgG1, one H chain mutated) heavy 1: not shown heavy 2: not shown light: DIVMTQSPLSLPVTPGEPASISCQASESLVHSNRNTYLHWYLQKPGQSPQLLIYKVSNRFSGVPDRFSGSGSGTDFTLKISRVEAEDVGVYYCSQNTHVPPTFGQGTKVEIERTVAAPSVFIFPPSDEQLKSGTASVVCLLNNFYPREAKVQWKVDNALQSGNSQESVTEQDSKDSTYSLSSTLTLSKADYEKHKVYACEVTHQGLSSPVTKSFNRGEC
6 | 103 | 114 | 105 | 105 | GpH7-A5/GpH7-B3 variant Y300_16H/GpL16-k0 (antibody, human IgG1, kappa, He Ab: heterodimerized IgG1, one H chain mutated) heavy 1: not shown heavy 2: not shown light: DIVMTQSPLSLPVTPGEPASISCQASESLVHSNRNTYLHWYLQKPGQSPQLLIYKVSNRFSGVPDRFSGSGSGTDFTLKISRVEAEDVGVYYCSQNTHVPPTFGQGTKVEIERTVAAPSVFIFPPSDEQLKSGTASVVCLLNNFYPREAKVQWKVDNALQSGNSQESVTEQDSKDSTYSLSSTLTLSKADYEKHKVYACEVTHQGLSSPVTKSFNRGEC
7 | 78.6 | 72.7 | 105 | 104 | GpH7-A5/GpH7-B3 variant Y300_14T/GpL16-k0 (antibody, human IgG1, kappa, He Ab: heterodimerized IgG1, one H chain mutated) heavy 1: not shown heavy 2: not shown light: DIVMTQSPLSLPVTPGEPASISCQASESLVHSNRNTYLHWYLQKPGQSPQLLIYKVSNRFSGVPDRFSGSGSGTDFTLKISRVEAEDVGVYYCSQNTHVPPTFGQGTKVEIERTVAAPSVFIFPPSDEQLKSGTASVVCLLNNFYPREAKVQWKVDNALQSGNSQESVTEQDSKDSTYSLSSTLTLSKADYEKHKVYACEVTHQGLSSPVTKSFNRGEC
8 | 73.1 | 67.4 | 101 | 74.2 | GpH7-A5/GpH7-B3 variant Y300_11K/GpL16-k0 (antibody, human IgG1, kappa, He Ab: heterodimerized IgG1, one H chain mutated) heavy 1: not shown heavy 2: not shown light: DIVMTQSPLSLPVTPGEPASISCQASESLVHSNRNTYLHWYLQKPGQSPQLLIYKVSNRFSGVPDRFSGSGSGTDFTLKISRVEAEDVGVYYCSQNTHVPPTFGQGTKVEIERTVAAPSVFIFPPSDEQLKSGTASVVCLLNNFYPREAKVQWKVDNALQSGNSQESVTEQDSKDSTYSLSSTLTLSKADYEKHKVYACEVTHQGLSSPVTKSFNRGEC

The next lines start with the binder.

Row | Binder | He/Con 2aR (FcγRIIa(R)) [%] | He/Con 2b (FcγRIIb) [%] | He/Con 1a (FcγRIa) [%] | He/Con 2aH (FcγRIIa(H)) [%]
9 | GpH7-A5/GpH7-B3 variant Y300_10E/GpL16-k0 (antibody, human IgG1, kappa, He Ab: heterodimerized IgG1, one H chain mutated) heavy 1: not shown heavy 2: not shown light: DIVMTQSPLSLPVTPGEPASISCQASESLVHSNRNTYLHWYLQKPGQSPQLLIYKVSNRFSGVPDRFSGSGSGTDFTLKISRVEAEDVGVYYCSQNTHVPPTFGQGTKVEIERTVAAPSVFIFPPSDEQLKSGTASVVCLLNNFYPREAKVQWKVDNALQSGNSQESVTEQDSKDSTYSLSSTLTLSKADYEKHKVYACEVTHQGLSSPVTKSFNRGEC | 127 | 175 | 108 | 108
10 | GpH7-A5/GpH7-B3 variant Y300_04F/GpL16-k0 (antibody, human IgG1, kappa, He Ab: heterodimerized IgG1, one H chain mutated) heavy 1: not shown heavy 2: not shown light: DIVMTQSPLSLPVTPGEPASISCQASESLVHSNRNTYLHWYLQKPGQSPQLLIYKVSNRFSGVPDRFSGSGSGTDFTLKISRVEAEDVGVYYCSQNTHVPPTFGQGTKVEIERTVAAPSVFIFPPSDEQLKSGTASVVCLLNNFYPREAKVQWKVDNALQSGNSQESVTEQDSKDSTYSLSSTLTLSKADYEKHKVYACEVTHQGLSSPVTKSFNRGEC | 103 | 106 | 102 | 103
11 | GpH7-A5/GpH7-B3 variant Y300_06M/GpL16-k0 (antibody, human IgG1, kappa, He Ab: heterodimerized IgG1, one H chain mutated) heavy 1: not shown heavy 2: not shown light: DIVMTQSPLSLPVTPGEPASISCQASESLVHSNRNTYLHWYLQKPGQSPQLLIYKVSNRFSGVPDRFSGSGSGTDFTLKISRVEAEDVGVYYCSQNTHVPPTFGQGTKVEIERTVAAPSVFIFPPSDEQLKSGTASVVCLLNNFYPREAKVQWKVDNALQSGNSQESVTEQDSKDSTYSLSSTLTLSKADYEKHKVYACEVTHQGLSSPVTKSFNRGEC | 105 | 110 | 106 | 116
12 | GpH7-A5/GpH7-B3 variant Y300_03V/GpL16-k0 (antibody, human IgG1, kappa, He Ab: heterodimerized IgG1, one H chain mutated) heavy 1: not shown heavy 2: not shown light: DIVMTQSPLSLPVTPGEPASISCQASESLVHSNRNTYLHWYLQKPGQSPQLLIYKVSNRFSGVPDRFSGSGSGTDFTLKISRVEAEDVGVYYCSQNTHVPPTFGQGTKVEIERTVAAPSVFIFPPSDEQLKSGTASVVCLLNNFYPREAKVQWKVDNALQSGNSQESVTEQDSKDSTYSLSSTLTLSKADYEKHKVYACEVTHQGLSSPVTKSFNRGEC | 96.8 | 96.5 | 110 | 109
13 | GpH7-A5/GpH7-B3 variant Y300_08L/GpL16-k0 (antibody, human IgG1, kappa, He Ab: heterodimerized IgG1, one H chain mutated) heavy 1: not shown heavy 2: not shown light: DIVMTQSPLSLPVTPGEPASISCQASESLVHSNRNTYLHWYLQKPGQSPQLLIYKVSNRFSGVPDRFSGSGSGTDFTLKISRVEAEDVGVYYCSQNTHVPPTFGQGTKVEIERTVAAPSVFIFPPSDEQLKSGTASVVCLLNNFYPREAKVQWKVDNALQSGNSQESVTEQDSKDSTYSLSSTLTLSKADYEKHKVYACEVTHQGLSSPVTKSFNRGEC | 96.9 | 96.1 | 107 | 120
14 | GpH7-A5/GpH7-B3 variant Y300_20W/GpL16-k0 (antibody, human IgG1, kappa, He Ab: heterodimerized IgG1, one H chain mutated) heavy 1: not shown heavy 2: not shown light: DIVMTQSPLSLPVTPGEPASISCQASESLVHSNRNTYLHWYLQKPGQSPQLLIYKVSNRFSGVPDRFSGSGSGTDFTLKISRVEAEDVGVYYCSQNTHVPPTFGQGTKVEIERTVAAPSVFIFPPSDEQLKSGTASVVCLLNNFYPREAKVQWKVDNALQSGNSQESVTEQDSKDSTYSLSSTLTLSKADYEKHKVYACEVTHQGLSSPVTKSFNRGEC | 104 | 110 | 106 | 103
15 | GpH7-A5/GpH7-B3 variant Y300_18N/GpL16-k0 (antibody, human IgG1, kappa, He Ab: heterodimerized IgG1, one H chain mutated) heavy 1: not shown heavy 2: not shown light: DIVMTQSPLSLPVTPGEPASISCQASESLVHSNRNTYLHWYLQKPGQSPQLLIYKVSNRFSGVPDRFSGSGSGTDFTLKISRVEAEDVGVYYCSQNTHVPPTFGQGTKVEIERTVAAPSVFIFPPSDEQLKSGTASVVCLLNNFYPREAKVQWKVDNALQSGNSQESVTEQDSKDSTYSLSSTLTLSKADYEKHKVYACEVTHQGLSSPVTKSFNRGEC | 96.2 | 92.7 | 101 | 101
